Source: patent publication US20200308277A1

Key:
huTIM-3/his (human) [1] = molecular target: huTIM-3/his (human) (UniProt Q8TDQ0); assay: SPR (Biacore) competition; 2nd antibody injection after 1st antibody ABTIM3-hum21 (competitor)
huTIM-3/his (human) [2] = molecular target: huTIM-3/his (human) (UniProt Q8TDQ0); assay: SPR (Biacore) competition, hTIM-3/his captured by anti-His antibody; 1st antibody injection
huTIM-3/his (human) [3] = molecular target: huTIM-3/his (human) (UniProt Q8TDQ0); assay: SPR (Biacore) competition; 2nd antibody injection after 1st antibody ABTIM3-hum11 (competitor)
huTIM-3/his (human) [4] = molecular target: huTIM-3/his (human) (UniProt Q8TDQ0); assay: SPR (Biacore) competition; 2nd antibody injection after 1st antibody ABTIM3-hum03 (competitor)
huTIM-3/his (human) [5] = molecular target: huTIM-3/his (human) (UniProt Q8TDQ0); assay: SPR (Biacore) competition; 2nd antibody injection after 1st antibody huIgG1 (competitor)

Chain of huTIM-3/his (human) (Q8TDQ0 22-202 limits assumed): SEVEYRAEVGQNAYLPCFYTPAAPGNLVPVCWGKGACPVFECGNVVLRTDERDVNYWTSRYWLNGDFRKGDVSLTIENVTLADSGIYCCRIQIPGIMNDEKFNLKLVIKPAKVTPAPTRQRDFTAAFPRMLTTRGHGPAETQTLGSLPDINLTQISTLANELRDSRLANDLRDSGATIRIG

change in RU (huTIM-3/his (human) [1]): 4.5 RU
change in RU (huTIM-3/his (human) [2]): 0.27 RU
change in RU (huTIM-3/his (human) [3]): 3.8 RU
change in RU (huTIM-3/his (human) [4]): 4.5 RU
change in RU (huTIM-3/his (human) [5]): 3.6 RU
Substance: huIgG1 (antibody)
